{"source": "paper PMC5428233", "about": "“Cross-beta nanostructures based on dinaphthylalanine Gd-conjugates loaded with doxorubicin” (Scientific Reports, 2017)", "key": {"[1]": {"experiment": "Critical aggregation concentration (CAC) by ANS fluorescence titration", "type": "physicochemical", "conditions": "ANS 20 μM titrated with conjugate, emission at 470 nm, graphical break-point (Figure S3)", "protocol": "(§1) Self-organization of the peptide conjugates at the atomic level was further characterized also in solution with fluorescence, UV-Vis, ^1HNMR, CD and FTIR spectroscopies. […] From ispection of Fig. 1b, the typical emission spectrum of the 2-naphthyl group with three maxima at 325, 340 and 355 nm, respectively, can be detected.\n(§2) The determination of CAC (critical aggregate concentration) values was determined as previously described[6] by the titration of the fluorescent probe ANS (8-anilino-1-naphthalene sulfonic acid ammonium salt)[28], [29] with the peptide conjugates[30]."}, "[2]": {"experiment": "Self-aggregation by intrinsic naphthyl fluorescence (intensity decrease, excimer peak)", "type": "physicochemical", "conditions": "water, room temperature, excitation 280 nm", "protocol": "as §1, §2"}, "[3]": {"experiment": "Transmission electron microscopy of self-assembled conjugates", "type": "physicochemical", "conditions": "5.0 mg/mL solution dried on grid, phosphotungstic acid stain", "protocol": "Self-assembled peptide conjugate at 5.0 mg/mL, as free base or as metal complex, was initially characterized using TEM. […] The presence of a diffraction pattern both in SAXS and in WAXS is fingerprint of a hierarchical organization of the molecules in fibers from the atomic to the nanoscale.\nTEM images were acquired by LaMest (Pozzuoli, Italy) with a FEI TECNAI G12 Spirit-Twin microscope (LaB6 source) endowed of a bottom mounted FEI Eagle-4k CCD camera (Eindhoven, The Netherlands), working at 120 kV."}, "[4]": {"conditions": "water, temperature below 5 °C"}, "[5]": {"conditions": "water"}, "[6]": {"experiment": "Water proton relaxation measurements / NMRD profiles", "type": "physicochemical", "conditions": "298 K", "text": "The paramagnetic relaxivity (r1p) of Gd (III) complexes is given by:1 r1p∝1/T1MH=Kf(τR) where K is a constant related to the strength of the dipolar interaction between the protons and the electronic magnetic moment, and τR is the correlation time associated with the reorientation of the Gd-H magnetic vector. This means that slowly moving high molecular weight systems are endowed with higher relaxivity than rapidly reorienting low molecular weight ones. In the case of self assembling Gd-containing systems, the extent of aggregation may be evaluated through the measure of the water proton longitudinal relaxation rate of its aqueous solution. In Fig. 8 are reported the NMRD (Nuclear Magnetic Resonance Dispersion) profiles of Gd-2Nal2 acquired at 21.5 MHz (0.5 T) and 298 K as a function of the complex concentration. […] At concentrations higher than 10–15 mg/mL the relaxivity assumes an almost stable value which corresponds to the system in the completely aggregated form. By analyzing the profile of the relaxivity data as a function of the applied field strength (NMRD - Nuclear Magnetic Relaxation Dispersion) it is possible to obtain an accurate determination of the reorientational correlation time (τR)[16], that is strictly related to the molecular size of the investigated system. NMRD profiles were acquired below (black circles) and above (white ones) the CAC values determined by ANS titration and ^1HNMR. […] Data were analyzed using the Solomon-Bloembergen-Morgan model, [18], considering one water molecule in the inner coordination sphere (q = 1) and fixing the exchange lifetime (τM) to a reliable value ([…]) on the basis of those previously reported for mono-amido DOTA derivatives[19]–[22]. The quantitative analysis of the NMRD profile of the aggregated form was not satisfactory when the simple inner- outer-sphere model was used, so the Lipari-Szabo approach was used for the description of the rotational dynamics. This model allows one to take into account the presence ofa certain degree of internal rotation superimposed on the overall tumbling motion, [24]. These two types ofmotion, a relatively fast local rotation of the coordination cage about the linker to the peptide scaffold superimposed on the global reorientation of the system, are characterized by different correlation times: τR ^l and τR ^g, respectively. The degree of correlation between global and local rotations is given by the parameter S^2, which takes values between 0 (completely independent motions) and 1 (entirely correlated motions).\nMeasure of R1 (longitudinal water proton relaxation rates) of Gd-2Nal2 were carried out on a Stelar Spinmaster spectrometer (Pavia, Italy) operating at 0.5 T which corresponds to 21.5 MHz Proton Larmor Frequency. R1 (1/T1) values were measured at 298 K by mean of the standard inversion-recovery technique. For the measure of the proton 1/T1 NMRD (Nuclear Magnetic Resonance Dispersion) profiles, a fast field-cycling Stelar relaxometer, operating over a continuum of magnetic field strengths from 0.00024 to 0.47 T (corresponding to 0.01–20 MHz proton Larmor frequencies) was used. The temperature was set at 298 K. The relaxometer is computer controlled and the absolute uncertainty is 1/T1 ± 1%. Additional data points were obtained on a Stelar Spinmaster spectrometer coupled to an electromagnet tunable at different Larmor Frequencies between 21.5 and 70 MHz. Experimental temperature control was obtained with an air-flow heater (Stelar VTC-91) endowed of a copper constantan thermocouple (uncertainty 0.1 °C). A previously reported relaxometric method[39] was used for the determination of the concentrations of the solutions used for the relaxometric characterization. The conventional Solomon-Bloembergen-Morgan theory was used for fitting of experimental data."}, "[7]": {"experiment": "Congo Red spectroscopic (UV-Vis) assay for amyloid-like fibrils", "type": "physicochemical", "conditions": "30 min at room temperature", "method": "The high tendency of Gd-2Nal2 to self-aggregate in amyloid-like fibrillary nanostructures in solution was confirmed by Congo Red (CR) staining assay. CR is a well-known azoic dye, used as indicator of the occurrence of amyloid like fibrils. […] When incubated with fibrillary aggregates, its spectral profile changes and a shift of the CR band from 490 to 540 nm is expected. In our experiment, depicted in Fig. 3b, CR UV-Vis maximum undergoes a clear shift after incubation with Gd-2Nal2 at 2.5 mg/mL. Instead, any variation or a slight shift can be evidenced for CR incubated with 0.1 and 1.0 mg/mL, respectively.\nCongo Red (CR) UV-Vis assay was carried out on aforementioned spectrophotometer as previously described. Briefly, 5, 50 and 125 μL of di-naphthylalanine stock solution (20 mg/mL) were added to a CR solution (12, 5 μM) prepared immediately before to use. The solutions containing peptide conjugate incubated with CR were left at room temperature for 30 min and then their UV-Vis spectra were recorded between 400 and 700 nm. The spectrum of CR alone at the same concentration was also recorded in the this spectral region."}, "[8]": {"experiment": "Doxorubicin loading and leakage by fluorescence spectroscopy", "type": "physicochemical", "text": "In order to prepare a potential theranostic agent, we assayed to incorporate cytotoxic doxorubicin (DOX) model drug in the Gd-2Nal2 paramagnetic nanostructures. DOX is an established anticancer agent clinically effective for the treatment of many cancertypes (breast and ovarian cancers). The incorporation and release of DOX into nanostructures was estimated by fluorescence spectroscopy (Figures S7 and S8). The addition of increasing amounts of the peptide conjugate to the DOX solution causes a progressive decrease of the fluorescence intensity of DOX (Figure S7a). […] By plotting the fluorescence intensity in the maximum at 590 nm as function of the Gd-2Nal2 concentration (Figure S7b) we estimated that gDrug/gPeptide is 0.028 (∼60 μg of DOX for ∼2.0 mg of peptide). […]\nA DOX solution (1 · 10^−4 M) was placed in the cuvette and titrated with small amount of Gd-2Nal2 peptide conjugate at 50 mg/mL. The fluorescence of each sample was monitored on Jasco Model FP-750 spectroflurophotometer as above described. […] At the end of the titration the DOX filled Gd-2Nal2 aggregates were 10-fold diluted and the DOX fluorescence was monitored up to 72 h. […]\nFigure S7: A) Fluorescence spectra of 1·10^-4 M DOX (58 μg/mL) solution alone and after the addition of growing amounts of Gd-2Nal2 peptide conjugate (from 0.25 to 10.0 mg/mL). […]"}}, "note": "Where a SMILES comes first, the peptide text is derived from it. [ ]: non-standard residue; d: D form. The star is where a group is joined. DOTA = O=C(O)CN1CCN(CC(=O)O)CCN(CC(=O)*)CCN(CC(=O)O)CC1; 2Nal = N[C@@H](Cc1ccc2ccccc2c1)C(=O)O; PEG6 = NCCOCCOCCOCCOCCOCCOCCC(=O)O", "data": [{"compound": "NC(=O)[C@H](Cc1ccc2ccccc2c1)NC(=O)[C@H](Cc1ccc2ccccc2c1)NC(=O)CCOCCOCCOCCOCCOCCOCCNC(=O)CN1CCN(CC(=O)O)CCN(CC(=O)O)CCN(CC(=O)O)CC1", "note": "[Gd-2Nal2, Gd-DOTA-L6-(2Nal)2] ({DOTA-PEG6}-[2Nal]-[2Nal]-NH2)", "values": [{"measurement": "critical aggregation concentration (CAC)", "setting": "[1]", "value": "~0.86", "unit": "mg/mL"}, {"measurement": "concentration at which self-aggregation begins (decrease of fluorescence intensity)", "setting": "[2]", "value": "~75", "unit": "µM"}, {"measurement": "concentration of appearance of the excimer peak (380-430 nm) / formation of stable aggregates", "setting": "[2]", "value": "~1000", "unit": "µg/mL"}, {"measurement": "concentration at which self-aggregation begins (decrease of fluorescence intensity)", "setting": "[2]; 0.025-20.0 mg/mL range", "value": "~100", "unit": "µg/mL"}, {"measurement": "supramolecular aggregation / morphology in TEM images", "setting": "[3]", "value": "long fibrillary nanostructures"}, {"measurement": "concentration at which fast hydrogel formation occurs", "setting": "[4]", "value": 20000, "unit": "µg/mL"}, {"measurement": "solubility", "setting": "[5]", "value": "≥ 50", "unit": "mg/mL"}, {"measurement": "aggregation state from NMRD profile and τR", "setting": "[6]; 1 mg/mL", "value": "monomeric state"}, {"measurement": "aggregation state from NMRD profile and τR", "setting": "[6]; 25.0 mg/mL (high concentration)", "value": "formation of aggregates"}, {"measurement": "concentration above which relaxivity assumes an almost stable value (completely aggregated form)", "setting": "[6]; 21.5 MHz (0.5 T), water", "value": "10000 to 15000", "unit": "µg/mL"}, {"measurement": "concentration at which self-aggregation starts (enhancement in relaxivity)", "setting": "[6]; 21.5 MHz (0.5 T), water", "value": "ca. 1.0 mg/mL"}, {"measurement": "r1p (longitudinal proton relaxivity)", "setting": "[6]; complex at 1 mg/mL, aqueous solution", "value": 7.3, "unit": "mM⁻¹ s⁻¹"}, {"measurement": "shift of Congo Red UV-Vis maximum (490 to 540 nm expected for fibrils)", "setting": "[7]; conjugate at 1.0 mg/mL", "value": "slight shift"}, {"measurement": "shift of Congo Red UV-Vis maximum (490 to 540 nm expected for fibrils)", "setting": "[7]; conjugate at 2.5 mg/mL", "value": "clear shift"}, {"measurement": "doxorubicin loading, gDrug/gPeptide", "setting": "[8]; DOX 1·10^−4 M titrated with Gd-2Nal2 (50 mg/mL stock), fluorescence at 590 nm, excitation 480 nm", "value": 0.028}, {"measurement": "DOX leakage (drug released) from the peptide aggregate", "setting": "[8]; DOX filled aggregates 10-fold diluted, fluorescence monitored, after 72 h", "value": "~6", "unit": "%"}]}]}
